# According to patent publication US20220056141A1 (DEUTSCHES KREBSFORSCHUNGSZENTRUM STIFTUNG DES OFFENTLICHEN …, published 2022):
# B1: bispecific FLT3xCD3 IgGsc antibody V6-V9 (bispecific antibody)
# heavy: QVQLQQPGAELVKPGASLKLSCKSSGYTFTSYWMHWVRQRPGHGLEWIGEIDPSDSYKDYNQKFKDKATLTVDRSSNTAYMHLSSLTSDDSAVYYCARAITTTPFDFWGQGTTLTVSSASTKGPSVFPLAPSSKSTSGGTAALGCLVKDYFPEPVTVSWNSGALTSGVHTFPAVLQSSGLYSLSSVVTVPSSSLGTQTYICNVNHKPSNTKVDKKVEPKSCDKTHTCPPCPAPPVAGPSVFLFPPKPKDTLMISRTPEVTCVVVGVSHEDPEVKFNWYVDGVEVHNAKTKPREEQYNSTYRVVSVLTVLHQDWLNGKEYKCKVSNKQLPSPIEKTISKAKGQPREPQVYTLPPSRDELTKNQVSLTCLVKGFYPSDIAVEWESNGQPENNYKTTPPVLDSDGSFFLYSKLTVDKSRWQQGNVFSCSVMHEALHNHYTQKSLSLSPGKSGEVQLVESGGGLVQPGGSLRLSCAASGYSFTGYTMNWVRQAPGKGLEWVALINPYKGVSTYNQKFKDRFTISVDKSKNTAYLQMNSLRAEDTAVYYCARSGYYGDSDWYFDVWGQGTLVTVSSGGGGSGGGGSGGGGSDIQMTQSPSSLSASVGDRVTITCRASQDIRNYLNWYQQKPGKAPKLLIYYTSRLESGVPSRFSGSGSGTDYTLTISSLQPEDFATYYCQQGNTLPWTFGQGTKVEIK
# light: DIVLTQSPATLSVTPGDSVSLSCRASQSISNNLHWYQQKSHESPRLLIKYASQSISGIPSRFSGSGSGTDFTLSINSVETEDFGVYFCQQSNTWPYTFGGGTKLEIKRTVAAPSVFIFPPSDEQLKSGTASVVCLLNNFYPREAKVQWKVDNALQSGNSQESVTEQDSKDSTYSLSSTLTLSKADYEKHKVYACEVTHQGLSSPVTKSFNRGEC
# notes: Fc-attenuated IgGsc format; also called CC-2 V9
# B2: mouse FLT3 (4G8) x CD3 (humanized UCHT1) bispecific IgGsc antibody V6-V6 (bispecific antibody)
# heavy: QVQLQQPGAELVKPGASLKLSCKSSGYTFTSYWMHWVRQRPGHGLEWIGEIDPSDSYKDYNQKFKDKATLTVDRSSNTAYMHLSSLTSDDSAVYYCARAITTTPFDFWGQGTTLTVSSASTKGPSVFPLAPSSKSTSGGTAALGCLVKDYFPEPVTVSWNSGALTSGVHTFPAVLQSSGLYSLSSVVTVPSSSLGTQTYICNVNHKPSNTKVDKKVEPKSCDKTHTCPPCPAPPVAGPSVFLFPPKPKDTLMISRTPEVTCVVVGVSHEDPEVKFNWYVDGVEVHNAKTKPREEQYNSTYRVVSVLTVLHQDWLNGKEYKCKVSNKQLPSPIEKTISKAKGQPREPQVYTLPPSRDELTKNQVSLTCLVKGFYPSDIAVEWESNGQPENNYKTTPPVLDSDGSFFLYSKLTVDKSRWQQGNVFSCSVMHEALHNHYTQKSLSLSPGKSGDIQMTQSPSSLSASVGDRVTITCRASQDIRNYLNWYQQKPGKAPKLLIYYTSRLESGVPSRFSGSGSGTDYTLTISSLQPEDFATYYCQQGNTLPWTFGQGTKVEIKGGGGSGGGGSGGGGSEVQLVESGGGLVQPGGSLRLSCAASGYSFTGYTMNWVRQAPGKGLEWVALINPYKGVSTYNQKFKDRFTISVDKSKNTAYLQMNSLRAEDTAVYYCARSGYYGDSDWYFDVWGQGTLVTVSS
# light: B1 light
# notes: also called CC-2; parental 4G8 x UCHT1
# Key:
# CD3 on Jurkat cells [1] = molecular target: T1, CD3 on Jurkat cells (human, UniProt P07766 23-207); assay: flow cytometry (value under the bar; by the legend the EC50 of the binding to Jurkat cells of FIG. 6)
# T1 construct: whole, on cells; also called Jurkat (CD3+); human cluster of differentiation 3 (CD3) antigen
# T1 sequence (P07766 23-207): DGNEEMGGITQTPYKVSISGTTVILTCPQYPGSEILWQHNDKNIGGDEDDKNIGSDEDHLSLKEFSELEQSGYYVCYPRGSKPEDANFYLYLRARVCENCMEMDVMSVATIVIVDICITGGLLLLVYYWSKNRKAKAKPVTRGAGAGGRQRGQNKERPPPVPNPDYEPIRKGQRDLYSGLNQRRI
# Procedure: (§1) In addition, antibody binding affinity was also tested using binding of the antibody to its target(s) as expressed on cells. Analyzed is the binding of CC-2 variants to Nalm16 cells expressing FLT3 (FIG. 4) or Jurkat cells expressing CD3 (FIG. 6). Variants V1 to V9 (with V6 being V6-V6) were produced after transient transfection of CHO cells using the insert sequences listed above. The antibodies were purified by protein A affinity- and size exclusion-chromatography. […] To measure antibody binding to FLT3 and CD3 NALM16 (FLT3+) and Jurkat (CD3+) cells were incubated with the respective variants for 30 min, washed, stained with a goat anti human Fcγ-specific and PE-conjugated secondary antibody (Jackson Immuno Research), washed again and analyzed by flow cytometry (FACSCalibur, BD Biosciences).
# CD3 on Jurkat cells [2] = molecular target: T1, CD3 on Jurkat cells; assay: flow cytometry on Jurkat cells (CD3+), 30 min incubation, PE-conjugated goat anti-human Fc-gamma secondary antibody
# Procedure: as §1
Binder,EC50 (CD3 on Jurkat cells [1]),EC50 (read off the curve) (CD3 on Jurkat cells [2])
B1,4.1 nM,~5 nM
B2,10.8 nM,~10 nM
